For this assay, the target named is T1, recombinant full-length Vps41 (S. cerevisiae, UniProt P38959 1-992).
T1 sequence: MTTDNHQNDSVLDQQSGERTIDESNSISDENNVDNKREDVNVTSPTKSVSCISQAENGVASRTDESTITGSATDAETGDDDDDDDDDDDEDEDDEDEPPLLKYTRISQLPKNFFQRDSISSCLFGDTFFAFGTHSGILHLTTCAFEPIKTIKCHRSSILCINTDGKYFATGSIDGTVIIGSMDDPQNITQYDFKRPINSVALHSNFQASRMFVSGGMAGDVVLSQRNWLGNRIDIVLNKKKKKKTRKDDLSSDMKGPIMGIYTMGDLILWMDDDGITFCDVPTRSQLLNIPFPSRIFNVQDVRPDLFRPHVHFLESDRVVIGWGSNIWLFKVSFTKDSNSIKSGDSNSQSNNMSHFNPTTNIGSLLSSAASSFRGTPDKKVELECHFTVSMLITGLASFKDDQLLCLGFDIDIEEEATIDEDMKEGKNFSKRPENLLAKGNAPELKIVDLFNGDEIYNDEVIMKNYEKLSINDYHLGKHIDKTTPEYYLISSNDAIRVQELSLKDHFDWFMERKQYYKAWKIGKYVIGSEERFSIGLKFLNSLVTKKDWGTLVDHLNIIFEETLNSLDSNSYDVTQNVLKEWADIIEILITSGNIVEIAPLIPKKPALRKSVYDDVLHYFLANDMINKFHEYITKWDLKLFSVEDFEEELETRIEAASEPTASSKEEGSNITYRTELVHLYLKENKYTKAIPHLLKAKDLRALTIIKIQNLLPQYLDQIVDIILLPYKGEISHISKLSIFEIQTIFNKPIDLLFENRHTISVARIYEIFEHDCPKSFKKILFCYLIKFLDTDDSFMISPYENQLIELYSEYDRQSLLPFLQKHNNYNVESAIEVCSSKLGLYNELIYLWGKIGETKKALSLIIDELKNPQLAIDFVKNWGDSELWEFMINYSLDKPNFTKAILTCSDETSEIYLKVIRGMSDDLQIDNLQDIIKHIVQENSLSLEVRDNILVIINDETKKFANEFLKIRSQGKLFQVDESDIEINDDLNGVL
The experiment in a line: pull-down.

B1: GST-Ypt7 (natural protein)
chain: MSSRKKNILKVIILGDSGVGKTSLMHRYVNDKYSQQYKATIGADFLTKEVTVDGDKVATMQVWDTAGQERFQSLGVAFYRGADCCVLVYDVTNASSFENIKSWRDEFLVHANVNSPETFPFVILGNKIDAEESKKIVSEKSAQELAKSLGDIPLFLTSAKNAINVDTAFEEIARSALQQNQADTEAFEDDYNDAINIRLDGENNSCSC
With B1, the binding result is “binds”.

These data come from paper PMC2542475 (The Journal of Cell Biology, 2008).
